Experiment [1] deals with α208.GS.BBz. Put plainly: flow cytometry, mAb 210 plus anti-rat IgG-APC on transiently transfected 293T cells, day 2; non-transfected 293T reads 0%; the filing says this CAAR is not expressed on the cell surface, so the low value shows absent target and not lack of affinity.
The target of experiment [2] is α39P AChR.CD8H.BBz CAAR. The experiment can be described thus: flow cytometry, mAb 210 staining of lentivirally transduced Jurkat cells, day 3; the same gate on NTD cells reads 0.43. On the technique in general: A flow cytometer gives signals particle by particle.
Sequence of α39P AChR.CD8H.BBz CAAR (chain, as listed by the source): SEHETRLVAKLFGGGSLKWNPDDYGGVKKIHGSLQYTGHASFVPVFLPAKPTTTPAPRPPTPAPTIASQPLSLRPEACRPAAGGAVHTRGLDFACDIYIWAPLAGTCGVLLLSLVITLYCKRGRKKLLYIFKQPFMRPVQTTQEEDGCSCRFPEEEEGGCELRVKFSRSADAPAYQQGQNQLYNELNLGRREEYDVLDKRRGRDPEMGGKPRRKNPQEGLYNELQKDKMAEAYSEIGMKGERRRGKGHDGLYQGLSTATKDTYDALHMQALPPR
The target of experiment [3] is α65P AChR.CD8H.BBz CAAR. The description is as above.
The target in experiment [4] is α208.GS.BBz. Put plainly: flow cytometry, mAb 210 plus secondary IgG-APC on lentivirally transduced primary human T cells, day 5; the same gate on NTD cells reads 0.20; the filing says this CAAR is not surface-expressed, so the low value shows absent target and not lack of affinity.
The target in experiment [5] is α211.GS.BBz CAAR. The experiment can be described thus: flow cytometry, mAb 210 plus secondary IgG-APC on lentivirally transduced primary human T cells, day 5; the same gate on NTD cells reads 0.20.
In experiment [6] the target is α210.GS.BBz CAAR. The experiment is described as above.
Experiment [7] has as its target α211.GS.BBz CAAR. Put plainly: flow cytometry, mAb 210 plus anti-rat IgG-APC on transiently transfected 293T cells, day 2; non-transfected 293T reads 0%.
In experiment [8] the target is α210.GS.BBz CAAR. The experiment is described as above.
The target of experiment [9] is α39P AChR.CD8H.BBz CAAR. The experiment can be described thus: flow cytometry, mAb 210 staining of lentivirally transduced primary human CD3+ T cells, day 5; the same gate on NTD cells reads 0.32.
Experiment [10] addresses α65P AChR.CD8H.BBz CAAR. The experiment is described as above.
The target in experiment [11] is α39P AChR.CD8H.BBz CAAR.
Experiment [12] has as its target α211.GS.BBz CAAR.
Experiment [13] addresses α210.GS.BBz CAAR.
Experiment [14] has as its target α208.GS.BBz.
Experiment [15] has as its target α65P AChR.CD8H.BBz CAAR.
The target of experiment [16] is α211.GS.BBz CAAR. This is another data set of the same source.
Experiment [17] addresses α210.GS.BBz CAAR. This is another data set of the same source.
Experiment [18] addresses α65P AChR.CD8H.BBz CAAR. The source holds these as a separate data set.
Experiment [19] has as its target α39P AChR.CD8H.BBz CAAR. The source holds these as a separate data set.

Take “anti-AChR alpha subunit monoclonal antibody 210”: the % AChR CAAR surface-positive 293T cells with α208.GS.BBz [1] worked out at 3.91%; with α211.GS.BBz CAAR [7], 17.1%; in the experiment with α210.GS.BBz CAAR [8], 26.3%. In addition, the % of cells in the mAb 210-positive gate (% (unit not given; gate frequency)) in the experiment with α39P AChR.CD8H.BBz CAAR [2] turned out to be 68.5; in the experiment with α65P AChR.CD8H.BBz CAAR [3] it was 68.8; with α208.GS.BBz [4], 1.14; with α211.GS.BBz CAAR [5], 63.6; with α210.GS.BBz CAAR [6], 41.3; in the experiment with α39P AChR.CD8H.BBz CAAR [9] it was 53.4. The substance also registered a % of cells in the mAb 210-positive gate (% (unit not given; gate frequency)) with α65P AChR.CD8H.BBz CAAR [10] of 13.1.

For “mAb 35 surface anti-AChR B cell receptor on TIB-175 hybridoma cells (antibody)”, in the experiment with α39P AChR.CD8H.BBz CAAR [11], the % GFP+ CAAR Jurkat NFAT-GFP cells after 12 h co-culture with TIB-175 (NTD Jurkat in the same figure: 4.1) (% (unit not given; gate frequency)) worked out at 53.7. The % GFP+ AChR CAAR Jurkat reporter cells (CD3+ gate) after 12 h co-culture with TIB-175 in the experiment with α211.GS.BBz CAAR [12] amounted to 55.7%; with α210.GS.BBz CAAR [13], 53%. Moreover, in the experiment with α208.GS.BBz [14], the % GFP+ Jurkat reporter cells (CD3+ gate) after 12 h co-culture with TIB-175; the construct is a negative control that is not on the cell surface stood at 2.88%. In the experiment with α65P AChR.CD8H.BBz CAAR [15], the % GFP+ CAAR Jurkat NFAT-GFP cells after 12 h co-culture with TIB-175 (NTD Jurkat in the same figure: 0.81) (% (unit not given; gate frequency)) was 69.

As to “mAb 192 anti-AChR B cell receptor expressed on Nalm6 cells (antibody)”, the % GFP+ AChR CAAR Jurkat NFAT-GFP cells (CD3+ gate) after 12 h co-culture with α211.GS.BBz CAAR [16] was 91.4%. The substance further returned a % GFP+ AChR CAAR Jurkat NFAT-GFP cells (CD3+ gate) after 12 h co-culture with α210.GS.BBz CAAR [17] of 89.5%. In the experiment with α65P AChR.CD8H.BBz CAAR [18], the % GFP+ among CD3+-gated α65P CAAR Jurkat NFAT-GFP cells after 12 h co-culture, lower histogram (% (unit not given; gate frequency)) came to 41.4 and the % of all co-cultured cells in the CD3+ GFP+ quadrant, upper dot plot, upper right (% (unit not given; quadrant frequency)) came out at 5.96. For the same substance, in the experiment with α39P AChR.CD8H.BBz CAAR [19], the % GFP+ among CD3+-gated α39P CAAR Jurkat NFAT-GFP cells after 12 h co-culture, lower histogram (Nalm6 control: 4.1) (% (unit not given; gate frequency)) is 6.23 and the % of all co-cultured cells in the CD3+ GFP+ quadrant, upper dot plot, upper right (Nalm6 control: 1.52) (% (unit not given; quadrant frequency)) was 5.44.

In turn, “mAb 195 anti-AChR B cell receptor expressed on Nalm6 cells (antibody)” returned a % GFP+ AChR CAAR Jurkat NFAT-GFP cells (CD3+ gate) after 12 h co-culture with α211.GS.BBz CAAR [16] of 94.6%. The substance further returned a % GFP+ AChR CAAR Jurkat NFAT-GFP cells (CD3+ gate) after 12 h co-culture in the experiment with α210.GS.BBz CAAR [17] of 91.7%. In the experiment with α65P AChR.CD8H.BBz CAAR [18], this substance gave a % GFP+ among CD3+-gated α65P CAAR Jurkat NFAT-GFP cells after 12 h co-culture, lower histogram (% (unit not given; gate frequency)) of 70.5 and a % of all co-cultured cells in the CD3+ GFP+ quadrant, upper dot plot, upper right (% (unit not given; quadrant frequency)) of 6.95. In the experiment with α39P AChR.CD8H.BBz CAAR [19], this substance had a % GFP+ among CD3+-gated α39P CAAR Jurkat NFAT-GFP cells after 12 h co-culture, lower histogram (Nalm6 control: 4.1) (% (unit not given; gate frequency)) of 68.6 and a % of all co-cultured cells in the CD3+ GFP+ quadrant, upper dot plot, upper right (Nalm6 control: 1.52) (% (unit not given; quadrant frequency)) of 17.8.

These data come from patent US20260001934A1.
